In article PMC5562738, “Structural basis for the broad substrate specificity of the human tyrosylprotein sulfotransferase-1” (Scientific Reports, 2017):
Each block holds one molecule with its values, some of them ahead of it.

Tests used:
[1] = molecular target: recombinant human TPST1 (Lys43-Lys341), as crystallised with PAP and C4P5Y5 (human) (UniProt O60507)
[2] = molecular target: the molecule itself; assay: crystal structure; human TPST1 (2.5 mg/ml) with 2 mM PAP and 1 mM C4P5Y5, sitting-drop vapor diffusion at 20 °C, 0.1 M Tris-HCl pH 8.5; 1.6 Å
[3] = molecular target: the molecule itself; assay: crystal structure; human TPST1 (5.0 mg/ml, His tag removed) with 2 mM PAP and 3 mM gastrin peptide, sitting-drop vapor diffusion at 20 °C, crystals soaked 1 d with 30 mM gastrin peptide; 2.3 Å

K m of tyrosine sulfation of the peptide by human TPST1 ([35S]PAPS, TLC, 30 °C, pH 6.0) [1]: 652 µM
Molecule: gastrin peptide

B1: recombinant human TPST1 (Lys43-Lys341), as crystallised with PAP and C4P5Y5 (enzyme, UniProt O60507 43-341, looked up)
chain: KLESTRTTVRTGLDLKANKTFAYHKDMPLIFIGGVPRSGTTLMRAMLDAHPDIRCGEETRVIPRILALKQMWSRSSKEKIRLDEAGVTDEVLDSAMQAFLLEIIVKHGEPAPYLCNKDPFALKSLTYLSRLFPNAKFLLMVRDGRASVHSMISRKVTIAGFDLNSYRDCLTKWNRAIETMYNQCMEVGYKKCMLVHYEQLVLHPERWMRTLLKFLQIPWNHSVLHHEEMIGKAGGVSLSKVERSTDQVIKPVNVGALSKWVGKIPPDVLQDMAVIAPMLAKLGYDPYANPPNYGKPDPK
notes: thrombin site after the His tag (pET15b); Ordered in the crystal: Tyr65-Pro338 and Ala64-Gly336; also called tyrosylprotein sulfotransferase-1; core domain of human TPST1; source: Origami (DE3) cells carrying pGro7 (GroEL, GroES), purified (Ni-NTA, Superdex 200)
stoichiometry N [2]: 2

B2: recombinant human TPST1 (Lys43-Lys341), His tag removed, as crystallised with PAP and the gastrin peptide (enzyme, UniProt O60507 43-341, looked up)
chain: KLESTRTTVRTGLDLKANKTFAYHKDMPLIFIGGVPRSGTTLMRAMLDAHPDIRCGEETRVIPRILALKQMWSRSSKEKIRLDEAGVTDEVLDSAMQAFLLEIIVKHGEPAPYLCNKDPFALKSLTYLSRLFPNAKFLLMVRDGRASVHSMISRKVTIAGFDLNSYRDCLTKWNRAIETMYNQCMEVGYKKCMLVHYEQLVLHPERWMRTLLKFLQIPWNHSVLHHEEMIGKAGGVSLSKVERSTDQVIKPVNVGALSKWVGKIPPDVLQDMAVIAPMLAKLGYDPYANPPNYGKPDPK
notes: also called tyrosylprotein sulfotransferase-1; protomer-1A; source: Origami (DE3) cells carrying pGro7 (GroEL, GroES), purified (Ni-NTA, Superdex 200), His tag removed with bovine thrombin; not shown: 6xHis, N-terminal, cleaved
stoichiometry N [3]: 2
